Measurements as given in US20200079833A1 (AstraZeneca / MedImmune, published 2020).
Starred links: 1 amine or outer side, 2 acyl side, 3 side chain; linkers in the order of their positions; H or OH if unused. Non-standard residues stand in square brackets, D forms with d. Groups on a side chain read outwards from the residue. Primed or numbered codes have the meaning given here. No end group written: not given here. *: point of attachment. Dodecanoyl(12-OPh(4-COOH)) = O=C(O)c1ccc(OCCCCCCCCCCCC(=O)*)cc1; γGlu = O=C(O)[C@H](CCC(=O)[*:2])N[*:1]; Stearoyl = CCCCCCCCCCCCCCCCCC(=O)*; αMeF = C[C@](N)(Cc1ccccc1)C(=O)O; αMeK = C[C@](N)(CCCCN)C(=O)O; Lauroyl = CCCCCCCCCCCC(=O)*; αMeS = C[C@](N)(CO)C(=O)O; PEG2′ = not defined here; Aib = CC(C)(N)C(=O)O; Ahx = NCCCCCC(=O)O

T1: GLP-1R (INS1e assay) (UniProt P32301 22-463, limits assumed)
T1 sequence (looked up): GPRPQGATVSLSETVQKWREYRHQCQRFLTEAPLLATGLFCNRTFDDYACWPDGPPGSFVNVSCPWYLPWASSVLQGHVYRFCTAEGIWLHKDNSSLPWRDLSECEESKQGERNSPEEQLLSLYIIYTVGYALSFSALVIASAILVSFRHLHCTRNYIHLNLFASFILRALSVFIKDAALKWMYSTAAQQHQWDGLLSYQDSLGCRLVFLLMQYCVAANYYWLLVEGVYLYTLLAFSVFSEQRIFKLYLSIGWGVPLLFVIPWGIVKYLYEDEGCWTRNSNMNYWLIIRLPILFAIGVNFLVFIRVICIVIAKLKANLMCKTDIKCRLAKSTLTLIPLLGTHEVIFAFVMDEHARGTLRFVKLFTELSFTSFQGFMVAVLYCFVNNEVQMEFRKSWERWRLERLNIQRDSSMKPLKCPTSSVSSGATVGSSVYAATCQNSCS

B1: SEQ ID NO 166 (peptide)
peptide: H[Aib]EGS[αMeF]TSDV[αMeS]S[αMeF]LEGEAA[αMeK]E[αMeF]IA[αMeF]VVK([γGlu-γGlu-γGlu-Lauroyl])GG-NH2
modifications: N-terminus assumed
SMILES: CCCCCCCCCCCC(=O)N[C@@H](CCC(=O)N[C@@H](CCC(=O)N[C@@H](CCC(=O)NCCCC[C@H](NC(=O)[C@@H](NC(=O)[C@@H](NC(=O)[C@](C)(Cc1ccccc1)NC(=O)[C@H](C)NC(=O)[C@@H](NC(=O)[C@](C)(Cc1ccccc1)NC(=O)[C@H](CCC(=O)O)NC(=O)[C@](C)(CCCCN)NC(=O)[C@H](C)NC(=O)[C@H](C)NC(=O)[C@H](CCC(=O)O)NC(=O)CNC(=O)[C@H](CCC(=O)O)NC(=O)[C@H](CC(C)C)NC(=O)[C@](C)(Cc1ccccc1)NC(=O)[C@H](CO)NC(=O)[C@](C)(CO)NC(=O)[C@@H](NC(=O)[C@H](CC(=O)O)NC(=O)[C@H](CO)NC(=O)[C@@H](NC(=O)[C@](C)(Cc1ccccc1)NC(=O)[C@H](CO)NC(=O)CNC(=O)[C@H](CCC(=O)O)NC(=O)C(C)(C)NC(=O)[C@@H](N)Cc1c[nH]cn1)[C@@H](C)O)C(C)C)[C@@H](C)CC)C(C)C)C(C)C)C(=O)NCC(=O)NCC(N)=O)C(=O)O)C(=O)O)C(=O)O
B2: SEQ ID NO 137 (peptide)
peptide: H[Aib]EGS[αMeF]TSDV[αMeS]S[αMeF]LEGEAAK([γGlu-Dodecanoyl(12-OPh(4-COOH))])E[αMeF]IA[αMeF]VV[αMeK]GG-NH2
modifications: N-terminus assumed
SMILES: CC[C@H](C)[C@H](NC(=O)[C@](C)(Cc1ccccc1)NC(=O)[C@H](CCC(=O)O)NC(=O)[C@H](CCCCNC(=O)CC[C@H](NC(=O)CCCCCCCCCCCOc1ccc(C(=O)O)cc1)C(=O)O)NC(=O)[C@H](C)NC(=O)[C@H](C)NC(=O)[C@H](CCC(=O)O)NC(=O)CNC(=O)[C@H](CCC(=O)O)NC(=O)[C@H](CC(C)C)NC(=O)[C@](C)(Cc1ccccc1)NC(=O)[C@H](CO)NC(=O)[C@](C)(CO)NC(=O)[C@@H](NC(=O)[C@H](CC(=O)O)NC(=O)[C@H](CO)NC(=O)[C@@H](NC(=O)[C@](C)(Cc1ccccc1)NC(=O)[C@H](CO)NC(=O)CNC(=O)[C@H](CCC(=O)O)NC(=O)C(C)(C)NC(=O)[C@@H](N)Cc1c[nH]cn1)[C@@H](C)O)C(C)C)C(=O)N[C@@H](C)C(=O)N[C@@](C)(Cc1ccccc1)C(=O)N[C@H](C(=O)N[C@H](C(=O)N[C@@](C)(CCCCN)C(=O)NCC(=O)NCC(N)=O)C(C)C)C(C)C
B3: SEQ ID NO 141 (peptide)
peptide: H[Aib]EGS[αMeF]TSDV[αMeS]S[αMeF]LEGEAAK([Ahx-Ahx-Dodecanoyl(12-OPh(4-COOH))])E[αMeF]IA[αMeF]VV[αMeK]GG-NH2
modifications: N-terminus assumed
SMILES: CC[C@H](C)[C@H](NC(=O)[C@](C)(Cc1ccccc1)NC(=O)[C@H](CCC(=O)O)NC(=O)[C@H](CCCCNC(=O)CCCCCNC(=O)CCCCCNC(=O)CCCCCCCCCCCOc1ccc(C(=O)O)cc1)NC(=O)[C@H](C)NC(=O)[C@H](C)NC(=O)[C@H](CCC(=O)O)NC(=O)CNC(=O)[C@H](CCC(=O)O)NC(=O)[C@H](CC(C)C)NC(=O)[C@](C)(Cc1ccccc1)NC(=O)[C@H](CO)NC(=O)[C@](C)(CO)NC(=O)[C@@H](NC(=O)[C@H](CC(=O)O)NC(=O)[C@H](CO)NC(=O)[C@@H](NC(=O)[C@](C)(Cc1ccccc1)NC(=O)[C@H](CO)NC(=O)CNC(=O)[C@H](CCC(=O)O)NC(=O)C(C)(C)NC(=O)[C@@H](N)Cc1c[nH]cn1)[C@@H](C)O)C(C)C)C(=O)N[C@@H](C)C(=O)N[C@@](C)(Cc1ccccc1)C(=O)N[C@H](C(=O)N[C@H](C(=O)N[C@@](C)(CCCCN)C(=O)NCC(=O)NCC(N)=O)C(C)C)C(C)C
B4: SEQ ID NO 140 (peptide)
peptide: H[Aib]EGS[αMeF]TSDV[αMeS]S[αMeF]LEGEAAK([Ahx-Dodecanoyl(12-OPh(4-COOH))])E[αMeF]IA[αMeF]VV[αMeK]GG-NH2
modifications: N-terminus assumed
SMILES: CC[C@H](C)[C@H](NC(=O)[C@](C)(Cc1ccccc1)NC(=O)[C@H](CCC(=O)O)NC(=O)[C@H](CCCCNC(=O)CCCCCNC(=O)CCCCCCCCCCCOc1ccc(C(=O)O)cc1)NC(=O)[C@H](C)NC(=O)[C@H](C)NC(=O)[C@H](CCC(=O)O)NC(=O)CNC(=O)[C@H](CCC(=O)O)NC(=O)[C@H](CC(C)C)NC(=O)[C@](C)(Cc1ccccc1)NC(=O)[C@H](CO)NC(=O)[C@](C)(CO)NC(=O)[C@@H](NC(=O)[C@H](CC(=O)O)NC(=O)[C@H](CO)NC(=O)[C@@H](NC(=O)[C@](C)(Cc1ccccc1)NC(=O)[C@H](CO)NC(=O)CNC(=O)[C@H](CCC(=O)O)NC(=O)C(C)(C)NC(=O)[C@@H](N)Cc1c[nH]cn1)[C@@H](C)O)C(C)C)C(=O)N[C@@H](C)C(=O)N[C@@](C)(Cc1ccccc1)C(=O)N[C@H](C(=O)N[C@H](C(=O)N[C@@](C)(CCCCN)C(=O)NCC(=O)NCC(N)=O)C(C)C)C(C)C
B5: SEQ ID NO 132 (peptide)
peptide: H[Aib]EGS[αMeF]TSDV[αMeS]S[αMeF]LEGEAAK([Ahx-Ahx-Lauroyl])E[αMeF]IA[αMeF]VV[αMeK]GG-NH2
modifications: N-terminus assumed
SMILES: CCCCCCCCCCCC(=O)NCCCCCC(=O)NCCCCCC(=O)NCCCC[C@H](NC(=O)[C@H](C)NC(=O)[C@H](C)NC(=O)[C@H](CCC(=O)O)NC(=O)CNC(=O)[C@H](CCC(=O)O)NC(=O)[C@H](CC(C)C)NC(=O)[C@](C)(Cc1ccccc1)NC(=O)[C@H](CO)NC(=O)[C@](C)(CO)NC(=O)[C@@H](NC(=O)[C@H](CC(=O)O)NC(=O)[C@H](CO)NC(=O)[C@@H](NC(=O)[C@](C)(Cc1ccccc1)NC(=O)[C@H](CO)NC(=O)CNC(=O)[C@H](CCC(=O)O)NC(=O)C(C)(C)NC(=O)[C@@H](N)Cc1c[nH]cn1)[C@@H](C)O)C(C)C)C(=O)N[C@@H](CCC(=O)O)C(=O)N[C@@](C)(Cc1ccccc1)C(=O)N[C@H](C(=O)N[C@@H](C)C(=O)N[C@@](C)(Cc1ccccc1)C(=O)N[C@H](C(=O)N[C@H](C(=O)N[C@@](C)(CCCCN)C(=O)NCC(=O)NCC(N)=O)C(C)C)C(C)C)[C@@H](C)CC

molecular target: T1, GLP-1R (INS1e assay); test: cell-based or functional assay

Row | INS1e assay EC50 GLP-1 R n1 [nM] | INS1e assay EC50 GLP-1 R n2 [nM] | INS1e assay EC50 Mean pM GLP-1R [pM] | Binder
1 | 2.71 | 1.45 | 2080 | H[Aib]EGS[αMeF]TSDK([PEG2′-PEG2′-γGlu-Stearoyl])[αMeS]S[αMeF]LEGEAA[αMeK]E[αMeF]IA[αMeF]VV[αMeK]GG-NH2 [SEQ ID NO 119]
2 | 0.233 | 0.687 | 460 | B1
3 | 0.0526 | 0.0215 | 37 | H[Aib]EGS[αMeF]TSDV[αMeS]S[αMeF]LEGEAAK([PEG2′-PEG2′-PEG2′-Lauroyl])E[αMeF]IA[αMeF]VV[αMeK]GG-NH2 [SEQ ID NO 136]
4 | 0.0637 | 0.0362 | 50 | B2
5 | 0.0323 | 0.0171 | 25 | H[Aib]EGS[αMeF]TSDV[αMeS]S[αMeF]LEGEAAK([PEG2′-PEG2′-PEG2′-Stearoyl])E[αMeF]IA[αMeF]VV[αMeK]GG-NH2 [SEQ ID NO 154]
6 | 0.0451 | 0.0227 | 34 | H[Aib]EGS[αMeF]TSDV[αMeS]S[αMeF]LEGEAAK([PEG2′-Dodecanoyl(12-OPh(4-COOH))])E[αMeF]IA[αMeF]VV[αMeK]GG-NH2 [SEQ ID NO 143]
7 | 0.168 | 0.0776 | 123 | H[Aib]EGS[αMeF]TSDV[αMeS]S[αMeF]LEGEAAK([PEG2′-Lauroyl])E[αMeF]IA[αMeF]VV[αMeK]GG-NH2 [SEQ ID NO 134]
8 | 0.0447 | 0.0367 | 41 | B3
9 | 0.055 | 0.0612 | 58 | H[Aib]EGS[αMeF]TSDV[αMeS]S[αMeF]LEGEAAK([PEG2′-PEG2′-Stearoyl])E[αMeF]IA[αMeF]VV[αMeK]GG-NH2 [SEQ ID NO 153]
10 | 0.765 | 1.67 | 1220 | H[Aib]EGS[αMeF]TSDV[αMeS]K([PEG2′-PEG2′-γGlu-Stearoyl])[αMeF]LEGEAA[αMeK]E[αMeF]IA[αMeF]VV[αMeK]GG-NH2 [SEQ ID NO 117]
11 | 0.0986 | 0.0593 | 79 | H[Aib]EGS[αMeF]TSDV[αMeS]S[αMeF]LEGEAAK([PEG2′-PEG2′-Lauroyl])E[αMeF]IA[αMeF]VV[αMeK]GG-NH2 [SEQ ID NO 135]
12 | 0.0432 | 0.0167 | 30 | B4
13 | 0.129 | 0.115 | 122 | B5
